From patent US20060039918A1 (University of California, published 2006) come the findings set out here.

[ ]: non-standard residue; d: D form. The star is where a group is joined. Biotin = O=C1N[C@H]2[C@H](CS[C@H]2CCCCC(=O)*)N1; code J = not defined here

For the assay, the target named is T1, HLA DRB1*0401 molecules (biotinylated recombinant HLA-DR4) (human).
T1 construct: Recombinant and biotinylated; also called biotinylated recombinant MHC
Description: loading of biotinylated recombinant HLA-DR4 with peptide for aAPCs and tetramers.

B1: dnaJP1 peptide (QKRAAYDQYGHAAFE) (peptide)
peptide: Biotin-QKRAAYDQYGHAAFE-NH2
SMILES: C[C@H](NC(=O)[C@H](C)NC(=O)[C@H](Cc1c[nH]cn1)NC(=O)CNC(=O)[C@H](Cc1ccc(O)cc1)NC(=O)[C@H](CCC(N)=O)NC(=O)[C@H](CC(=O)O)NC(=O)[C@H](Cc1ccc(O)cc1)NC(=O)[C@H](C)NC(=O)[C@H](C)NC(=O)[C@H](CCCNC(=N)N)NC(=O)[C@H](CCCCN)NC(=O)[C@H](CCC(N)=O)NC(=O)CCCC[C@@H]1SC[C@@H]2NC(=O)N[C@@H]21)C(=O)N[C@@H](Cc1ccccc1)C(=O)N[C@@H](CCC(=O)O)C(N)=O
notes: Synthetic peptide
As to B1, the binding result is on record as “binds”.

B2: PADRE (-) peptide (UAJAAAATLKAA) (peptide)
peptide: Biotin-[code U]A[code J]AAAATLKAA-NH2
modifications: reading uncertain
notes: Synthetic control peptide used to set the background in the T cell capture assay; also called negative control PADRE (-)
Turning to B2, the binding result is listed as “binds”.
